How the values were obtained:
Assay type in all cases: biochemical, Thauera aromatica
[1] = substrate: O=C1CCCCC1Cl; experiment: Michaelis-Menten kinetics, reduction; photometric standard assay or FDH-coupled biotransformation; settings: NADH 0.25 mmol L^−1, potassium phosphate pH 6.5, room temperature, 1 % (v/v) DMSO, racemic substrate
From the text: (§1) Michaelis-Menten kinetics, reduction; photometric standard assay or FDH-coupled biotransformation on ThaADH

[2] = substrate: O=C1CCCCC1=O; experiment: as above; settings: NADH 0.25 mmol L^−1, 100 mmol L^−1 potassium phosphate pH 6.5, room temperature, solubility limit reached
From the text: as §1

[3] = substrate: O=C1CCCCC1Br; experiment: as above; settings: NADH 0.25 mmol L^−1, potassium phosphate pH 6.5, room temperature, 3 % (v/v) DMSO, racemic substrate
From the text: as §1

purified protein [4] = substrate: CC1=CC(O)CCC1; experiment: purified protein; settings: oxidation, standard assay: NAD+ 1 mmol L^−1, 100 mmol L^−1 HEPES pH 9.0, 40 °C, pH 9.0
purified protein [5] = substrate: NC(=O)C1=CN([C@@H]2O[C@H](COP(=O)(O)OP(=O)(O)OC[C@H]3O[C@@H](n4cnc5c(N)ncnc54)[C@H](O)[C@@H]3O)[C@@H](O)[C@H]2O)C=CC1; experiment: purified protein; settings: reduction, co-substrate not given, standard assay pH 6.5, 40 °C, pH 6.5, varied: cofactor
purified protein [6] = substrate: NC(=O)c1ccc[n+]([C@@H]2O[C@H](COP(=O)(O)OP(=O)(O)OC[C@H]3O[C@@H](n4cnc5c(N)ncnc54)[C@H](O)[C@@H]3O)[C@@H](O)[C@H]2O)c1; experiment: purified protein; settings: oxidation, co-substrate not given, standard assay pH 9.0, 40 °C, pH 9.0, varied: cofactor
purified protein [7] = substrate: NC(=O)c1ccc[n+]([C@@H]2C[C@H](COP(=O)(O)OP(=O)(O)OC[C@H]3O[C@@H](n4cnc5c(N)ncnc54)[C@H](O)[C@@H]3O)[C@@H](O)[C@H]2O)c1; experiment: purified protein; settings: oxidation, co-substrate not given, standard assay pH 9.0, 40 °C, pH 9.0, varied: cofactor

B1: ThaADH (Thauera aromatica) (protein)
chain: MSSNPHRWMMTSPGAPMVRAEFEIGELSADQVVVAVAGCGVCHTDLGYYYDSVRTNHALPLALGHEISGRVVQAGANAAQWLGRAVIVPAVMPCGTCELCTSGHGTICRDQVMPGNDIQGGFASHVVVPARGLCPVDEARLAAAGLQLADVSVVADAVTTPYQAVLQAGVEPGDVAVVIGVGGVGGYAVQIANAFGASVVAIDVDPAKLEMMSKHGAALTLNAREISGRDLKKAIEAHAKANGLRLTRWKIFECSGTGAGQTSAYGLLTHGATLAVVGFTMDKVEVRLSNLMAFHARALGNWGCLPEYYPAALDLVLDKKIDLASFIERHPLDQIGEVFAAAHAHKLTRRAILTP
notes: full-length WT, recombinant in E. coli BL21(DE3), pET22b; C-terminal Strep-tag for all kinetics, N-terminal His-tag for crystals; about 40 kDa monomer, dimer in solution (89 kDa by SEC; tetramer and higher in blue native PAGE), two zinc per monomer
[1]
  Km: 33.1 ± 10.4 mM
  Vmax: 14.9 µmol/min/mg
  kcat: 10.9 ± 1.38 s⁻¹
  kcat/Km: 330 ± 150 M⁻¹ s⁻¹
[2]
  Km: 68.1 ± 33.8 mM
  Vmax: 53.3 µmol/min/mg
  kcat: 39.1 ± 10.1 s⁻¹
  kcat/Km: 570 ± 430 M⁻¹ s⁻¹
[3]
  Km: 24.1 ± 6.8 mM
  Vmax: 6.3 µmol/min/mg
  kcat: 4.62 ± 0.47 s⁻¹
  kcat/Km: 190 ± 70 M⁻¹ s⁻¹
Purified protein [4]
  Km: 21.6 ± 1.9 mM
  Vmax: 2.4 µmol/min/mg
  kcat: 1.77 ± 0.05 s⁻¹
  kcat/Km: 80 ± 10 M⁻¹ s⁻¹
Purified protein [5]
  Km: 0.07 ± 0.02 mM
  Vmax: 9.1 µmol/min/mg
  kcat: 6.63 ± 0.74 s⁻¹
  kcat/Km: 94700 ± 37600 M⁻¹ s⁻¹
Purified protein [6]
  Km: 1.0 ± 0.2 mM
  Vmax: 2.2 µmol/min/mg
  kcat: 1.63 ± 0.1 s⁻¹
  kcat/Km: 1630 ± 430 M⁻¹ s⁻¹
Purified protein [7]
  Km: 0.7 ± 0.1 mM
  Vmax: 0.9 µmol/min/mg
  kcat: 0.66 ± 0.04 s⁻¹
  kcat/Km: 940 ± 190 M⁻¹ s⁻¹

— publication PMC9400901, “Advanced Insights into Catalytic and Structural Features of the Zinc‐Dependent Alcohol Dehydrogenase from Thauera aromatica” (Chembiochem, 2022)
